{
  "source": "paper PMC7785802",
  "about": "“Therapeutic Efficacy of a Trichinella Spiralis Paramyosin-Derived Peptide Modified With a Membrane-Targeting Signal in Mice With Antigen-Induced Arthritis” (Frontiers in Microbiology, 2020)",
  "origin": "cited, not measured here",
  "test_system": "antigen-induced arthritis (AIA)",
  "settings": "intraarticular injection prior to disease onset or at disease flares, animal models, Williams et al., 2004, Durigutto et al., 2013",
  "excerpt": "As MAC is a therapeutic target in RA, complement inhibitors have shown potential for preventing and treating arthritis in animal models (Goodfellow et al., [2000]; Durigutto et al., [2013]). Moreover, local or targeted inhibition might be an effective way to circumvent the adverse effects of systemic complement inhibition. […] More precisely, intraarticular injection of membrane-targeted CD59 or Fc fusio ... || RA is an autoimmune disease that has been confirmed to involve inappropriate complement activation in the joint cavity, making the delivery of anti-complement drugs into the joint cavity an ideal therapeutic strategy to relieve RA progression (Dijkstra et al., [2019]). […] Murine AIA, a well-recognized acute complement-dependent arthritis, imitates the pathology of RA (van den Berg et al., [2007]). As complement activation is involved in the process of AIA, this model has been utilized in many studies to assess the therapeutic efficacy of complement inhibitors that might affect various stages of complement activation. In animal models, intraarticular injection of complement inhibitors (including sCR1, CD59, and anti-C5 neutralizing recombinant mini-antibody) prior to ...",
  "note": "Where two headings read alike, the source gives them in different places.",
  "data": [
    {"molecule": "CD59: a heavily glycosylated protein of 20 kDa that can specifically inhibit MAC formation (protein, UniProt P13987 26-102, looked up) CD59 glycoprotein: LQCYNCPNPTADCKTAVNCSSDFDACLITKAGLQVYNKCWKFEHCNFNDVTTRLRENELTYYCCKKDLCNFNEQLEN", "values": [
      {"measurement": "effect on joint swelling and development of AIA", "setting": "ref Goodfellow et al., 2000", "result": "alleviate joint swelling and the development of AIA"},
      {"measurement": "effect on joint swelling and development of AIA", "setting": "ref Harris et al., 2002", "result": "alleviate joint swelling and the development of AIA"}
    ]}
  ]
}
